Data on one molecule can be found in PMC6902690 (The FASEB Journal, 2019).

This experiment concerns the target factor H binding protein variant 1, recombinant (Neisseria meningitidis serogroup B …, UniProt Q9JXV4, strain). Kind of experiment: Gyrolab immunoassay; biotinylated fHbp v1, v2 or v3 as capture reagent (100 µg/ml); Fabs at 10 µg/ml in Rexxip H; detection with goat anti-human IgG Fab fragment specific-Alexa 647 (25 nM); Bioaffy 200 CDs, 3-step method; positive when the fluorescent signal was higher than 10. Particulars: both partners purified.

B1: huFab 1E6 (recombinant Fab produced in E. coli) (Fab, V domains shown)
VH: EVQLVQSGAEVKKPGSSVKVSCKASGGTVIDYPITWVRQAPGQGLEWVGGFVPLFRTSNYGQKFQGRVTITADKSTSTASMELNSLTSEDTAIYYCARGDTAMGPFDYWGQGTLVTVSS
VL: SYVLTQPPSLSVAPGKTATLTCGGNNIAGKTVHWYQQRPGQAPVLVISYDSDRPSGIPERFSGSNSANTATLTISRVEAGDEADYYCQVWDRNSDHWVFGGGTKLTVL
For the molecule B1, the binding result is “binds”.
